Experimental data published in publication PMC9054685 (RSC Advances, 2020).

Assay: Particle size by dynamic light scattering
Assay type: physicochemical
Details: Zetasizer Nano ZS, 25 °C

dendritic polylysine-1,4,7-triazacyclononane-1,4,7-triacetic acid conjugate [NOTA-DGL]
diameter (particle size, DLS): 35.02 ± 1.53 nm
